The values below are quoted from earlier work in publication PMC7194015, “Proline-Rich Antimicrobial Peptides in Medicinal Maggots of Lucilia sericata Interact With Bacterial DnaK But Do Not Inhibit Protein Synthesis” (Frontiers in Pharmacology, 2020).

Broadly, the Kd is the equilibrium constant for the complex coming apart.

The target of the data set is DnaK (Escherichia coli) (UniProt P0A6Y8).
DnaK (Escherichia coli), sequence (P0A6Y8 2-638): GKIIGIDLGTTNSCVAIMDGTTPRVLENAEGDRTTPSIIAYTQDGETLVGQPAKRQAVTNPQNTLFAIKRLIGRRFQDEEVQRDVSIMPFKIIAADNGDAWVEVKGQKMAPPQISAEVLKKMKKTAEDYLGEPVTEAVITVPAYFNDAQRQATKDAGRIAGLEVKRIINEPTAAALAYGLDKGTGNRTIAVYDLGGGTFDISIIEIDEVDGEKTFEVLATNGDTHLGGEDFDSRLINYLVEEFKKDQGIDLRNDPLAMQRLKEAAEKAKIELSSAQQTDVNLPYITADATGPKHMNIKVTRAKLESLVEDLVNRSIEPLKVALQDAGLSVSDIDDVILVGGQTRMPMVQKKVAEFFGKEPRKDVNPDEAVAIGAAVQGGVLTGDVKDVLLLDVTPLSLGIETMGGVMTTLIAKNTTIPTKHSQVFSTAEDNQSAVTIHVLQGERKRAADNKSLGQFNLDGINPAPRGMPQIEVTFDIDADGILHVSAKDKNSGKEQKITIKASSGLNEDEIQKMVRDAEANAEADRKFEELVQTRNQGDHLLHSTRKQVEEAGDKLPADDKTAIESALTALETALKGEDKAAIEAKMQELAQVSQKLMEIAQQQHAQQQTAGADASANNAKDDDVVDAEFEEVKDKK

abaecin, sequence (P81463 whole entry): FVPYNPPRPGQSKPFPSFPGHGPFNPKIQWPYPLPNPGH

As for abaecin (from UniProt P81463), the Kd is 0.1 µM.
